This note sets out measurements from the nanobody polyreactivity screen of Harvey et al. (2022).

The nature of this series: yeast display, Sf9 membrane polyspecificity reagent, FACS + sequencing; frameworks hold sequencing errors. The gist of the method:
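Nanobodies came from a synthetic yeast display library in Saccharomyces cerevisiae BJ5465, induced with galactose for 36–48 hours and stained for 1 hour at 4 °C with 10% biotinylated, detergent-solubilized Sf9 membrane reagent. Cells were enriched on streptavidin microbeads and then FACS-sorted, with low and high (top ~1%) gates set on anti-HA fluorescence for expression and streptavidin fluorescence for reagent binding. Each polyreactivity label reflects the gate a clone came from. Genes were amplified by colony PCR, sequenced by MiSeq 2 × 250 and filtered by CDR length.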
Turning to “QVQLVESGGGLVQAGGSLRLSCAASGSIFGVYAMGWYRQAPGKERGLVARISGSSGSTRYADSVKGRFTISRDNAKNTVYLQMNSLKPEDTAVYYCAARAIFRQGDRIYDSWGQGTQVTVSS”, the “polyreactivity (PSR sort gate)” value is recorded as “high polyreactivity”.

In the case of “QVQLVESGGGLVQAGGSLRLSCAASGSIFGVYDMGWYRQAPGKEREVVAVINSNGGSTYYADSVKGRFTISRDNAKNTVYLQMNSLKPEDTAVYYCAADYQSYVYIGYGYWGQGTQVTVSS”, the “polyreactivity (PSR sort gate)” value is on record as “low polyreactivity”.

In the case of “QVQLVESGGGLVQAGGSLRLSCAASGSIFGVYTMGWYRQAPGKERELVAAITSAGSTYADSVKGRFTISRDNAKNTVYLQMNSLKPEDTEVFYCNAQSVLLSLRVELREPHEYWGQGTQVTVSS”, the “polyreactivity (PSR sort gate)” value was “low polyreactivity”.

With “QVQLVESGGGLVQAGGSLRLSCAASGSIFGWYAKGLYRQAPGKEREFVAVISSSGDSTFYADSVKGRFTISRDNAKNTVYLQMNSLKPEDTAVYYCAAYYYYYYWPQTAYWQGDYWGHGTQVTVSS”, the “polyreactivity (PSR sort gate)” value is “high polyreactivity”.

Turning to “QVQLVESGGGLVQAGGSLRLSCAASGSIFGYNAMGWSRPAPGKERELVAAITSSGGSTYYADSVKGRFTISRDNAKNTVYLQMNSLKPEDTAVYYCNARDWYIVWYDYWGQGTQVTVSS”, the “polyreactivity (PSR sort gate)” value is recorded as “low polyreactivity”.

As to “QVQLVESGGGLVQAGGSLRLSCAASGSIFGYNAMGWYRPAPGKERELVAAISRSGGSTYYADSVKGRFTISRDNAKNTVYLQMNSLKPEDTAVSYCATGYYGYRYGYWGQGTQVTVSS”, the “polyreactivity (PSR sort gate)” value is “high polyreactivity”.

For the sequence “QVQLVESGGGLVQAGGSLRLSCAASGSIFGYNAMGWYRQAPGKERELVADISSGDSTNYADSVKGRFTISRDNAKNTVYLQMNSLKPEDTAVYYCAADFTYQGSSANDYWGQGTQVTVSS”, the “polyreactivity (PSR sort gate)” value is given as “low polyreactivity”.

As to “QVQLVESGGGLVQAGGSLRLSCAASGSIFGYNAMGWYRQAPGKERELVAVINASGASTYYADSVKGRFTISRDNAKNTVYLQMNSLKPEDTAVYYCAKDPFPFPGGDYWGQGTQVTVSS”, the “polyreactivity (PSR sort gate)” value is on record as “low polyreactivity”.

As for “QVQLVESGGGLVQAGGSLRLSCAASGSIFGYNAMGWYRQAPGKESELVAAISSSGGRTYYADSVKGRFTNSRDNAKNTVYLQMNSLKPEDTAVYYCAALGLYGDYLWYDYWGQGTQVTVSS”, the “polyreactivity (PSR sort gate)” value was “high polyreactivity”.

Turning to “QVQLVESGGGLVQAGGSLRLSCAASGSIFGYNAMGWYRQAPGKETELVAVITRSDGSTYYADSVKGRFTISRDNAKNTVYLQMNSLKPVDTAVYYCNAETHVYYWGVVIYEYNYWGQGTQVTVSS”, the “polyreactivity (PSR sort gate)” value is given as “low polyreactivity”.

Consider “QVQLVESGGGLVQAGGSLRLSCAASGSIFGYNVMGWYRQAPGKERELVAAITVNGGRTYYADSVKGRFTISRDNAKNTVYLQINSLKAEDTAVYYCAARVTGTQRSGYYWGQGTQVTVSS”, for which the “polyreactivity (PSR sort gate)” value is recorded as “high polyreactivity”.

Regarding “QVQLVESGGGLVQAGGSLRLSCAASGSIFGYYAMGCYRQAPGKERELDAAISASGGSTYYADSVKGRFTISRDNAKITVYFHMNSLKPEDTAVYYCAAVRSVTYIWARYPYGLEYCGQGTQVTVSS”, the “polyreactivity (PSR sort gate)” value is on record as “high polyreactivity”.

Take “QVQLVESGGGLVQAGGSLRLSCAASGSIFGYYAMGWSRQAPGKERELVAAISASGGSTYYADSVKGRFTISRDNAKNTVYLQMNSLKPEDTAVYYCAKVDWEQGFWVEYDHYDYWGQGTQVTVSS”: the “polyreactivity (PSR sort gate)” value is “high polyreactivity”.

For the sequence “QVQLVESGGGLVQAGGSLRLSCAASGSIFGYYAMGWYRKAPGKERELVAAISWSDGSTYYADSVKGRFTISRDNAKNTVYLQMNSLNPEDTAVYYCAARFTPYITSDDGHYDYWGQGTQVTVSS”, the “polyreactivity (PSR sort gate)” value is given as “low polyreactivity”.

For “QVQLVESGGGLVQAGGSLRLSCAASGSIFGYYAMGWYRPATGKEREFVAAITSSGGSTYYADSVKGRFTISRDNAKNTVYLQMNSLKPEDTAVYYCNAGAWQLYWYRYEYWGQGTQVTVSS”, the “polyreactivity (PSR sort gate)” value was “high polyreactivity”.

As to “QVQLVESGGGLVQAGGSLRLSCAASGSIFGYYAMGWYRQAPGKEREFDADINSRDGGTYYADSVKGRFTISRDNAKNTVYLQMNSLKPEDTAVYYCAAPYYAAWVAVAIEYDYWGQGTQVTVSS”, the “polyreactivity (PSR sort gate)” value was “low polyreactivity”.

For the sequence “QVQLVESGGGLVQAGGSLRLSCAASGSIFGYYAMGWYRQAPGKEREFVAAITWNGGSTYYADSVKGRFTISRDNAKNTVYLQMNSLKPEDTAVYYCARTSYARYRNGWTYDHWGQGTQVTVSS”, the “polyreactivity (PSR sort gate)” value is listed as “low polyreactivity”.

“QVQLVESGGGLVQAGGSLRLSCAASGSIFGYYAMGWYRQAPGKERELVAAISGSGGSTYYADSVKGRFTISRDNAKNTVYLQMNSLKPEDTAVYYCAAAYHGRHYYWGQGTQVTVSS”: the “polyreactivity (PSR sort gate)” value was “high polyreactivity”.

In the case of “QVQLVESGGGLVQAGGSLRLSCAASGSIFGYYAMGWYRQAPGKERELVAAISWSGGSTYYADSVKGRFTISRDNAKNTVYLQMNSLKPEDTAVYYCAATSRGNDSQKYYYWGQGTQVTVSS”, the “polyreactivity (PSR sort gate)” value is recorded as “low polyreactivity”.

Regarding “QVQLVESGGGLVQAGGSLRLSCAASGSIFGYYAMGWYRQAPGKERELVAAITSDGSTYYADSVKGRFTITRDNAKNTVNLQMNSLKPEDTAVYYCAAYSWYYTSRYDYWGQGTQVTVSS”, the “polyreactivity (PSR sort gate)” value is “low polyreactivity”.

Turning to “QVQLVESGGGLVQAGGSLRLSCAASGSIFGYYAMGWYRQAPGKERELVARIRSTGSTNYADSVKGRFTISRDNAKNTVYLQMNSLKPEDTAVFYCNKLAHRKGGYWGQGTQVTVSS”, the “polyreactivity (PSR sort gate)” value was “high polyreactivity”.

For the sequence “QVQLVESGGGLVQAGGSLRLSCAASGSIFGYYAMGWYRQAPGKERELVASISWSGTSTYYADSVKGRFTISRDNAKNTVYLQMNSLKPEDTAVYYCATKGLFTNSPLYVSAYDYWGQGTQVTVSS”, the “polyreactivity (PSR sort gate)” value was “low polyreactivity”.

As to “QVQLVESGGGLVQAGGSLRLSCAASGSIFGYYAMGWYRQAPGKERELVATISNDGSTKYADSVKGRFTISRDNAKNTVYLQMNSLKPEDSAVYYCAADSARHGRDTYQPEYRNDYWGQGTQVTVSS”, the “polyreactivity (PSR sort gate)” value is given as “low polyreactivity”.

Take “QVQLVESGGGLVQAGGSLRLSCAASGSIFGYYDMGWYRQAPGKERELVAAISSRGGITYYADSVKGRFTISRDHAKNTVYLQMNSLKPEDTAVYYCAAYAYFHRREGYWVQGTQVTVSS”: the “polyreactivity (PSR sort gate)” value was “high polyreactivity”.

Regarding “QVQLVESGGGLVQAGGSLRLSCAASGSIFGYYGMGWYRQAPGKERELVAAISYRGGYTYYADSVKGRFTISRDNAKNTVSLQMNSLKPEDTAVYYCNAGGRRRIFAHSSTGDYWGQGTQVTVSS”, the “polyreactivity (PSR sort gate)” value is reported as “high polyreactivity”.

Regarding “QVQLVESGGGLVQAGGSLRLSCAASGSIFGYYTMGLYRQAPGKERELVAAITSGGSTNYADSVKGRFTISRDNAKNTVYLQMNSLKPEDTAVYYCAKVSYYPWRYDYWGQGTQVTVSS”, the “polyreactivity (PSR sort gate)” value is given as “low polyreactivity”.

Take “QVQLVESGGGLVQAGGSLRLSCAASGSIFGYYTMGWYRKAPGKERELVAAITSGGSTNYADSVKGRFTISRDNAKNTVYLQMNSLKPEDTAVYYCAKVSYYPWRYDYWGQGTQVTVSS”: the “polyreactivity (PSR sort gate)” value is recorded as “low polyreactivity”.

Consider “QVQLVESGGGLVQAGGSLRLSCAASGSIFGYYTMGWYRQAPGKEREFVAAISWSGGSTYYADSVKGRFTISRDNAKNTVYLQMTSLKPEDTAVYYCNADVYWEYDYWGQGTQVTVSS”, for which the “polyreactivity (PSR sort gate)” value is listed as “low polyreactivity”.

For “QVQLVESGGGLVQAGGSLRLSCAASGSIFGYYTMGWYRQAPGKERELVAAITYSGGSTYYADSVKGRFTISRDNAKNTVYLQMNSLKPEDTAVYYCNAKSAAHRYVRRHDYWGQGTQVTVSS”, the “polyreactivity (PSR sort gate)” value was “low polyreactivity”.

On to “QVQLVESGGGLVQAGGSLRLSCAASGSIFGYYTMGWYRQAPGKERELVATISRSGGSTYYADSVKGRFTISRDNAKNTVYLQMNSLKPEDTAVYYCGARSWGGYDSRGYWGQGTQVTVSS”, for which the “polyreactivity (PSR sort gate)” value was “high polyreactivity”.

As for “QVQLVESGGGLVQAGGSLRLSCAASGSIFGYYVMGWDRQAPGKERELVAAITRSGSTYYADSVKGRFTISRDNAKNTVYLQMNSLKPEDTAVYYCAADGSYYWYPHTTYDYWGQGTQVTVSS”, the “polyreactivity (PSR sort gate)” value was “low polyreactivity”.

For “QVQLVESGGGLVQAGGSLRLSCAASGSIFHFNAMGWYRQAPGKERELVATITSSGSSTYYADSVKGRFTISRDNAKNTVYLQMNSLKPEDTAVYYCAAGWFWQMDYWGQGTQVTVSS”, the “polyreactivity (PSR sort gate)” value is reported as “low polyreactivity”.

“QVQLVESGGGLVQAGGSLRLSCAASGSIFHIYMGGYRQAPGKERELVASMSYRGGTTYYADSVKGRFTISRDNAKNTVYLQKNSLKPEDTAVYYCNVHRDFYHYGRYGHMDYWGQGC”: the “polyreactivity (PSR sort gate)” value was “low polyreactivity”.

On to “QVQLVESGGGLVQAGGSLRLSCAASGSIFHLYAMGWYRQAPGKEREFVAAISSSGGLTYYADSVKGRFTISRDNAKNTVYLQMNSLKPEDTEVYYCATAEQYGTKLRKVSYQYDYWGQGTQVTVSS”, for which the “polyreactivity (PSR sort gate)” value is given as “low polyreactivity”.

As to “QVQLVESGGGLVQAGGSLRLSCAASGSIFHPYAMGWYRQAPGKERELVAAISKSGGNTYYADSVKGRFTISRDNAKNTVYLQMNSLKPEDTAVYYCAALDYWGQGTQLTVSS”, the “polyreactivity (PSR sort gate)” value is reported as “low polyreactivity”.

Regarding “QVQLVESGGGLVQAGGSLRLSCAASGSIFHPYGMGWYRQAPGKERELVAAITSSGGDKYYADSVKGRFTISRDNAKNTVYLQMNSLKPEDTAVYYCAATGLPGYYAYDYWGQGTQVTVSS”, the “polyreactivity (PSR sort gate)” value is on record as “low polyreactivity”.

With “QVQLVESGGGLVQAGGSLRLSCAASGSIFHRYAMGWYRQAPGKERELVAAINRGGSSYADSVKGRFTISLDNAKNTVYLQMNRLNPEDTAVYYCATRNIGRSTGPFYWGYYYWGQGTQVTVSS”, the “polyreactivity (PSR sort gate)” value is “high polyreactivity”.

With “QVQLVESGGGLVQAGGSLRLSCAASGSIFHSYAMGWYRQAPGKERDFVASITQRVGRTNYADSVKGRFTISRDNAKNTVYLQMNSLKPEDTAVYYFAASYWRLYYRRDYWGQGTQVTVSS”, the “polyreactivity (PSR sort gate)” value was “high polyreactivity”.

Take “QVQLVESGGGLVQAGGSLRLSCAASGSIFHTYAMGWYRKAPEKERELVAANTVSGGDTYYADSVKGRFTISRDNEKNTVYLQMNSLKAEDTAVYYCAVDTTTSYTVEYDYWGQGTQVTVSS”: the “polyreactivity (PSR sort gate)” value is “low polyreactivity”.

On to “QVQLVESGGGLVQAGGSLRLSCAASGSIFHWNAMGWYRQAPGKERELVAGITTSGGTTYYADSVKGRFTISRDNAKNTVYLQMNSLKPEDTAVYYCAARIIRWRPRWPSYGKYDYWGQGTQVTVSS”, for which the “polyreactivity (PSR sort gate)” value is “low polyreactivity”.
